Test results reported in patent US20200040401A1 (KAOHSIUNG MEDICAL UNIVERSITY, published 2020).

Key:
[1] = molecular target: phosphatidylinositol 3,4,5-trisphosphate Rac exchange factor 2 (PREX2) (UniProt Q70Z35 1-1606, limits assumed); assay: cell-based or functional assay
[2] = molecular target: endogenous PREX2 of mouse liver (mouse, UniProt Q3LAC4 1-1598, limits assumed); assay: reciprocal co-IP, mouse liver lysates (FIG. 1B)
Excerpt: FIG. 1B depicts that mouse liver lysates were used for reciprocal co-IP assay followed by IB analysis.
Please refer to FIG. 1A to FIG. 1G, which illustrates that GNMT interacts with PREX2 and negatively regulates PREX2-mediated AKT signaling. As the data in FIG. 1A illustrated, GNMT interacted with endogenous PREX2. […] To map the binding domain, different Myc-tagged PREX2 truncated mutants were co-expressed with Flag-tagged GNMT in HEK293T cells.

endogenous PREX2 of mouse liver, sequence (Q3LAC4 whole entry): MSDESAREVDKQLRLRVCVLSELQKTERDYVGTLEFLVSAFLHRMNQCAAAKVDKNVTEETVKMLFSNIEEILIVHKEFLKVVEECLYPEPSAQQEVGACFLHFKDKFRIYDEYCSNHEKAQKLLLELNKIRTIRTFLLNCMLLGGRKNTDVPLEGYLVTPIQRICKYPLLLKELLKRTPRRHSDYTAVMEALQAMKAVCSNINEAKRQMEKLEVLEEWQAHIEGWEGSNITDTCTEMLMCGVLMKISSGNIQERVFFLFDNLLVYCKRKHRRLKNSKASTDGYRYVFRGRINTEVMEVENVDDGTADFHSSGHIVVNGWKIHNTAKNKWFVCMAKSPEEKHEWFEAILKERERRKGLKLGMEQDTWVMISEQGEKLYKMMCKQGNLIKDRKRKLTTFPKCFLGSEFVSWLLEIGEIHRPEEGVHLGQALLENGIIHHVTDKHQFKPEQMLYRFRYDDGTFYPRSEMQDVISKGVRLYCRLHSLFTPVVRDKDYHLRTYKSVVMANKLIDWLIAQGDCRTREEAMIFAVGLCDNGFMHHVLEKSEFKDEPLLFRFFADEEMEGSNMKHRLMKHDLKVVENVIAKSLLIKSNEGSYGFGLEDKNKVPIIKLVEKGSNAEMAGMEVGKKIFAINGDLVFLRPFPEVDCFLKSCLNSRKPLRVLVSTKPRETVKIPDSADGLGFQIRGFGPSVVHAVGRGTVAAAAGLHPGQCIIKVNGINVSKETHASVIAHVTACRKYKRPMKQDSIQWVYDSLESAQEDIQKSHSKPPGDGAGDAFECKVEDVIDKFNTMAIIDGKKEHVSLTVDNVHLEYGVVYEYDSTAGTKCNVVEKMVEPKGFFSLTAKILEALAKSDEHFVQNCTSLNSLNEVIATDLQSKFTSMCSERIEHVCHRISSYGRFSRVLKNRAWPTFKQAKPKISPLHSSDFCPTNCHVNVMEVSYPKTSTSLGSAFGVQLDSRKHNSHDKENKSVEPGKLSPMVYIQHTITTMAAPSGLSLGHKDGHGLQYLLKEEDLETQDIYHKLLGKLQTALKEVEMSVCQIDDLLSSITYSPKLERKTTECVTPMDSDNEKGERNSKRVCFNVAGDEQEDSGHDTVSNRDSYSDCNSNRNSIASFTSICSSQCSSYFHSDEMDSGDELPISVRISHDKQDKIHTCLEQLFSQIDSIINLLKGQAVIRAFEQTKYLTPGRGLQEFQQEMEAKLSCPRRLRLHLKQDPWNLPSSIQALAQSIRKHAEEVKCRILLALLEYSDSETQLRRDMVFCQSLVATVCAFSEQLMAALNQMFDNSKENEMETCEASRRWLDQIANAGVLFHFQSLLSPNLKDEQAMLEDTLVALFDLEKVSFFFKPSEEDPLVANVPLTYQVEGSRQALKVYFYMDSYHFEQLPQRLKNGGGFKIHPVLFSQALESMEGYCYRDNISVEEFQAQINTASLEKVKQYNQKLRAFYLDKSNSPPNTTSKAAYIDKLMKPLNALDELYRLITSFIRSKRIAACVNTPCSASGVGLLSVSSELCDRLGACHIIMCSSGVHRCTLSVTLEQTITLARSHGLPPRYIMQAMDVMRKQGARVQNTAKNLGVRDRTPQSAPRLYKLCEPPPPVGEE
phosphatidylinositol 3,4,5-trisphosphate Rac exchange factor 2 (PREX2), sequence (Q70Z35 whole entry): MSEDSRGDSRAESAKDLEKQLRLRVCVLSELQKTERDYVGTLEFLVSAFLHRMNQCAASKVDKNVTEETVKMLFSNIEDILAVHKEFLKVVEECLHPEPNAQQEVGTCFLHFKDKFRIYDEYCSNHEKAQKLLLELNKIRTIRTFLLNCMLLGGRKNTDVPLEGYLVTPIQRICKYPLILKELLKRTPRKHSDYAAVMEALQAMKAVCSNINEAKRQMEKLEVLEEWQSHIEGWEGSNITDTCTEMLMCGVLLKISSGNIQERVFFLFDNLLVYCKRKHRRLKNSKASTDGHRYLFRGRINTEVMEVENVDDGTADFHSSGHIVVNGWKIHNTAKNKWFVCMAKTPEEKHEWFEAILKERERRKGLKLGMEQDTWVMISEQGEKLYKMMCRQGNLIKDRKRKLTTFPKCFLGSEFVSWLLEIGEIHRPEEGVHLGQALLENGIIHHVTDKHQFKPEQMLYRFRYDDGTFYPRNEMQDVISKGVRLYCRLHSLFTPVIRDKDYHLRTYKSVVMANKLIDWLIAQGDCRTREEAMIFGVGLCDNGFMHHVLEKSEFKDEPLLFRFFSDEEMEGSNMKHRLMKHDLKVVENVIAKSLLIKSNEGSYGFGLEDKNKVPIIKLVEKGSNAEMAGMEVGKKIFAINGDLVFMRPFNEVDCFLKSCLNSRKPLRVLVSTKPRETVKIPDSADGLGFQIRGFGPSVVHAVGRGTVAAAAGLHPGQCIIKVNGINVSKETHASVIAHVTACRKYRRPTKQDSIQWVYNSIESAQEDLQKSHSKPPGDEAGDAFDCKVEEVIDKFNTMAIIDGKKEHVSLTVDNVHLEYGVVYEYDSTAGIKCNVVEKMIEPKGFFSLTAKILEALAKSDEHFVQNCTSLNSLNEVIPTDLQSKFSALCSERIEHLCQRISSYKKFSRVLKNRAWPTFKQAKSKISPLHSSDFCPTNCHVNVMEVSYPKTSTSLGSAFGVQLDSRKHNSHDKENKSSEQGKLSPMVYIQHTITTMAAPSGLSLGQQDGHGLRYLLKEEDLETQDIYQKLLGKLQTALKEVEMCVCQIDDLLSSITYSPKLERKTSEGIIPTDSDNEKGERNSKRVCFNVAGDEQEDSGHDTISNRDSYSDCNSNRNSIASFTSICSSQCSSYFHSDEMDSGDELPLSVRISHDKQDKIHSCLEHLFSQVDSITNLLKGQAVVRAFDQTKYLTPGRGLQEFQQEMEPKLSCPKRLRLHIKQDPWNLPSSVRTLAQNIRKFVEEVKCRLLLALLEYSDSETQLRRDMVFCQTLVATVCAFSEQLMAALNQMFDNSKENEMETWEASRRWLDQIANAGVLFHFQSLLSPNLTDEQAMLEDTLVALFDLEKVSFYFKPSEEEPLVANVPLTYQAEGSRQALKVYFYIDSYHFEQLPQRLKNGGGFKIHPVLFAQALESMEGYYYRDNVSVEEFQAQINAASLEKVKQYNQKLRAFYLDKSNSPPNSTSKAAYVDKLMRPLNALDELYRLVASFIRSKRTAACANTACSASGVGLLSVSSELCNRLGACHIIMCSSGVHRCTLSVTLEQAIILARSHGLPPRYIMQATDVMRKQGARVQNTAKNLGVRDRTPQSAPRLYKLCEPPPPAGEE

Binder	PREX2 half-life (pulse-chase, 35S-Methionine/Cysteine, Huh7 cells) [1] [h]	binding result [2]
glycine-N-methyltransferase (GNMT) (enzyme) VDSVYRTRSLGVAAEGLPDQYADGEAARVWQLYIGDTRSRTAEYKAWLLGLLRQHGCQRVLDVACGTGVDSIMLVEEGFSVTSVDASDKMLKYALKERWNRRHEPAFDKWVIEEANWMTLDKDVPQSAEGGFDAVICLGNSFAHLPDCKGDQSEHRLALKNIASMVRAGGLLVIDHRNYDHILSTGCAPPGKNIYYKSDLTKDVTTSVLIVNNKAHMVTLDYTVQVPGAGQDGSPGLSKFRLSYYPHCLASFTELLQAAFGGKCQHSVLGDFKPYKPGQTYIPCYFIHVLKRTD	9.4	
endogenous GNMT of mouse liver (enzyme, UniProt Q9QXF8 2-293, looked up) VDSVYRTRSLGVAAEGLPDQYADGEAARVWQLYIGDTRSRTAEYKAWLLGLLRQHGCHRVLDVACGTGVDSIMLVEEGFSVMSVDASDKMLKYALKERWNRRKEPSFDNWVIEEANWLTLDKDVLSGDGFDAVICLGNSFAHLPDCKGDQSEHRLALKNIASMVRPGGLLVIDHRNYDYILSTGCAPPGKNIYYKSDLTKDITTSVLTVNNKAHMVTLDYTVQVPGTGRDGSPGFSKFRLSYYPHCLASFTELVRAAFGGRCQHSVLGDFKPYKPGQAYVPCYFIHVLKKTD		binds
